Measured values from patent US20260216244A1 (published 2026).

T1: EGFR L858R peptide on HLA-A*03:01 (human)
T1 peptide: KITDFGRAK

B1: TCR3 (TCR, V domains shown)
Valpha: ENVEQHPSTLSVQEGDSAVIKCTYSDSASNYFPWYKQELGKRPQLIIDIRSNVGEKKDQRIAVTLNKTAKHFSLHITETQPEDSAVYFCAADMRFGAGTRLTVKP
Vbeta: GVTQTPKFRILKIGQSMTLQCTQDMNHNYMYWYRQDPGMGLKLIYYSVGAGITDKGEVPNGYNVSRSTTEDFPLRLELAAPSQTSVYFCASSYSRDSIREQYFGPGTRLTVT
B2: TCR4 (TCR, V domains shown)
Valpha: QKEVEQNSGPLSVPEGAIASLNCTYSDRGSQSFFWYRQYSGKSPELIMSIYSNGDKEDGRFTAQLNKASQYVSLLIRDSQPSDSATYLCAVSATGFQKLVFGTGTRLLVSP
Vbeta: QVTQNPRYLITVTGKKLTVTCSQNMNHEYMSWYRQDPGLGLRQIYYSMNVEVTDKGDVPEGYKVSRKEKRNFPLILESPSPNQTSLYFCASTADRGGNEQFFGPGTRLTVL

Target: T1, EGFR L858R peptide on HLA-A*03:01
Assay: multimer staining

Row | Binder | binding result
1 | B1 | recognises
2 | B2 | recognises
